Results from the DeepSol protein solubility set.

test: soluble on expression in E. coli; label from the status in PepcDB or PDB records

Sequence | soluble on expression in E. coli
MYNFFRTVPRANRNEITFYPDYEEEGQKKKKTRSMFSWLGGDSSKKKNKEVLETVSEGLRKIYKQKLLPLEEFHKFHDFHSPALDDPDFDAKPMILLVGQYSTGKTTFIRYLLESDFPGIRIGPEPTTDRFIAVMHGDEEGSIPGNALVVDAKKQFRALSGFGNAFLNRFQCSTLPNQVLESVTIVDTPGILSGEKQRIDRGYDFTGVLEWFAERVDRIILLFDAHKLDISDEFKRCIEALAGNEDKIRIVLNKSDMVDHQQLMRVYGALMWSLGKVFKTPEVSRVYLGSFWDHPLHYDLNRRLFQDEQHDLFQDLQALPRNAALRKLNDLIKRARLAKVHAYIIAELRKQMPSMIGKDKKKKDLIQNLDKIYEQLQREHNISPGDFPDVNKMREKLQTQDFSKFNPLKPKLLEVVDGMLATDIARLMAQIPKEEAAAPAGSNGSADPTVRGGAFSQTTEAETPFGFGRGEGFDKGADEAEWVVSRERTTADSTFESLGPVNGYLSGRAAKEHMVKSKLPNSVLGKVWKLADIDKDGQLDADEFALANYLINLKLEGHEIPSELPKHLIPPSKRGEQDPVYPSLNDNDE | soluble
SLLDTLLINIGQLLTMDQEDGLLRREAMNTLPVIENGAVGIENGVITFVGTAEEAKGLQAKEVIDCGGKMVSPGLVDPHTHLVFGGSRENEIALKLQGVPYLEILEQGGGILSTVNATKQSSKEELVQKAKFHLDRMLSFGVTTVEAKSGYGLDDETEWKQLEATAQLQKEHPIDLVSTFLGAHAVPKEYKGRSKEFLQWMLDLLPEMKEKQLAEFVDIFCETGVFSVEESKEFLLKAKELGFDVKIHADEIDPLGGAEAAAEIGAASADHLVGASDKGIEMLANSNTVATLLPGTTFYLNKESFARGRKMIDEGVAVALATDFNPGSCPTENIQLIMSIAMLKLKMTPEEVWNAVTVNSSYAINRGDVAGKIRVGRKADLVLWDAYNYAYVPYHYGVSHVNTVWKNGNIAYTRGEQSWSTATI | soluble
MFKTIDTNQKDVKLTVFSSDEKSFMVTATLVEKAGHAFLINSKFTQSDSKEIVEYLKKNNLSLDKIFIIHGDPDYYFGLESIKAVYPEAIAYATESTVEHIVHSVLGKLKVWKDALGENAPSNVVLPQVFKEKAIDFQGLTFELVGLEHYRTSLFNKELKVLIGGIDVFNEIHVFLADTSSKAAMEAWIENLKVLQALHADIIVPSHGSIEKSLNNQALTATMDYLRTAVQASEESGTSKDFVAKLEAAYPDYANKGVLELSAKVVTKEMPWGLEHHHHHH | soluble
MNKKNKFFDIYLELEQDITSGVYPAGTLLPSENVLAKRFSVSRETIRKALVLLLENGCIQKLQGKGSIVIDRERYSFPVSGLTSFKELQKSEQMNATTEVIRNEETTLPDRIADFAGLPHGSNCLAILRVRYLEGEATILDYDYLLDKTEPIANEILEDSLYQYLENEKGYEISYAQKEITVEPLNAEDKKYLALHGDTHVVVVKSTVFLKDTTLFQYTESRHRLDKFRFIDFARRR | not soluble
MAHHHHHHMQDVDEMKYLLPNLKQPITSIQVHSWTGTKESYILESKDYVLGEGMPEKCDAIATDCFLSGFTDIGKCFQCKLLMQEKNINDSCFKYVSSNQKELIKKQLKITAQDDEESSEYHLSESIKNLLKNIYKKNNDDNKKKELLHFENVNSALKSELLNYCNLLKEVNMNGVLKDHQLGNVQDVFNNLTKLLEEHKEENDNVLYHKMKNEALCLKNVNDWMKNKTGLLLPQLSYDLTYKNNNFTEFTQNKSYTSQNIVDKLYCNHEYCNRLKDHNNCISKINVEDQKNCALSWAFASKYHLETIKCMKGYEPLNASVLYVTNCLKNKNKDVCTEGSNPLVFLETIEEKGFLPTESNYPYDQSKVGDICPQLQNDWDNVFENTKVLDYNNGPFSVGTKGYIAYESEAFQKDMHSFVKLVKDEIMNKGSVIAYVKAENVLGYELNGKKVQNLCGDKTPDHVVNIVGYGNYINNKGEKKSYWIVRNSWGKYWGDDGYFKVDMYGPSTCEDNFIHTVVVFNVQVPINEKFDKKEHDIYNYYLKTSPEFYHNLYYKTFNSNKEEKSMNKNSYVYGQDTTPVENEAPRSGVQKPTELSSTESQTVSPPNESQTESLLSGGSQVTNPTLTQSTSSSSGQQETGPLSTQGLSPATGDPKGKEQEASPAEGLSGVLNPTKEVTSEEKIQIIHLLKHIKNSKIRRGLVKYNHEFEVGDNSCSRSTSKNAEMHDECVNICEKYWPECRGTAVPGYCLSTHDDKNECDFCYV | not soluble
MYIGGTGVEGYHHLFKEILDNAVDEALAGYATEILVRLNEDGSLTVEDNGRGIPVDLMPEEGKPAVEVIYTTLHSGGKFEQGAYKVSGGLHGVGASVVNALSEWTVVEVFREGKHHRIAFSRGEVTEPLRVVGEAPRGKTGTRVTFKPDPEIFGNLRFDPSKIRARLREVAYLVAGLKLVFQDRQHGKEEVFLDKGGVASFAKALAEGEDLLYEKPFLIRGTHGEVEVEVGFLHTQGYNAEILTYANMIPTRDGGTHLTAFKSAYSRALNQYAKKAGLNKEKGPQPTGDDLLEGLYAVVSVKLPNPQFEGQTKGKLLNPEAGTAVGQVVYERLLEILEENPRIAKAVYEKALRAAQAREAARKARELVRRQNPLESDELPGKLADCQTENPEEAELFIVEGDSAGGSAKQGRDRRFQAILPLRGKILNVEKAGLSKALKNAEVRAMVSAIGVGIGGDGEAHFDLEGLRYHKIIIMTDADVDGSHIRTLLLTFFYRYMRPLIERGHVYIAQPPLYRLQVGKKVEYLYSDEELQARLKELEGKHYEVQRFKGLGEMNPEQLWETTMNPEKRVLKRVELQDALEASELFEKLMGQEVAPRREFIEEHARYAELDI | soluble
LGKQIMFDAFRFKCPPQELNAAIIKQLRGLLDLGIGEIKARAEKQEALLEYPIFFNDWQDNKKIIRNLLDRISADQLPLEIYRYTTFEDGSVLEEQLTLKEANEALTALQRIELEQDMLSQLEAGHISSRDEYVPDDEDV | not soluble
RPDPQEIEAQRKAAIEAARQDSIAKAEAELLAARTQGATPDSIKQAAGYNQYGLLAAATAGAEEQVELANGKIALKLSTKGGAIREVLLRDYKTHDGKPLYLFREGESDFNLPLRTVDNRLVDTRDLYFSPISRTDSSVVMRLAVDSASYLDLAYVLLPDDYRLRMTVSGQNLQSLFPANMTMQDLEWSQRIRRQEKSWKFENQYTSIYYKYSGDEVDRLSDSKQEDKKTLEEPLHWVSFKDKYFASVLVCDSYFENNKLAQKTAAAGSDYLKNCTMSATFPLDVRSGTKARFTFFFGPLKYNMLRAYDKGMKAEDNLDLDHLVYLGASIFRWINRYMIIPASTFLQQYFSN | not soluble
SGGPGTKSGEPLCPPLLCNQDKETLTLLIQVPRIQPQSLQGDLNPLWYKLRFSAQDLVYSFFLQFAPENKLSTTEPVISISSNNAVIELAKSPESHGHWREWYYGVNNDSLELQECSNSDQLQGKEERVNEESHLTEKEYIEHCNTPTTDSDSSIAVKALQIDSFGLVTCFQQESLDVSQMILGKSQQPESKMQSEFIKEKSATCSNEEKDNLNESVITEEKETDGDHLSSLLNKTTVHNIPGFDSIKETNMQDGSVQVIKDHVTNCAFSFQNSLLYDLD | soluble
MILLSVHDSFLLDHNLPSACDKVFERLLDVTNSSFGFIATLQEDEDGQSLYLPAISNLAWDEETLTWYRHQRRTHGGLRLRKLDNLFGHVVTHNTVVCTNSLLRQKAGRDLPPIHPALHSLLGIPITHNGKTVGMIALANRREGYDQTMIELEHHHHHH | not soluble
MGSMAHSDGIFKKEQAMCLEKIQRANELMGFNDSSPGCPGMWDNITCWKPAHVGEMVLVSCPELFRIFNPDQDMGVVSRNCTEDGWSEPFPHYFDACGFDEYESET | soluble
MGSDKIHHHHHHMTKRILEVNVDDNGYSGVYSLIKRVIENKPADYQIDLACLEPFESQQNIDYLNKLGTQVYYIGYPGNKIKKQLKYYEKLQKVVKDGNYDYVHIHGDVANKLYVTALAARKADSGVKIILQSHASDVDGSHRQLKRFIHKSLRGKLVKLADCYVSVSDLASNWMFPSIPKSQVIKIMNGVDLAAFRYDPIIRKRIRKELGLSRKHVLGHIGRFAYQKNHQYLIQVFAKVYAQDPQARLLLVGKGDLQDECKHQVHDLGLDKQVIFYGLSSNTSELFQAMDVFLLPSHFEGLPIVGVEAQAAGLPVIFSDQITSEAKMTNNVSFLPIDETSLSAWQSQVIKDLELGHRDDYDLLSRQKLDITDTVAAFMKLYNS | not soluble
MGSDKIHHHHHHMNKRRNGLSSRSSTKGITTITIDPLMLVEMMHIHDSAFPIGGYTHSFGLETYIQRDIVKDENSLIQWCRTYLYDNLGYGDGILLKETLEVLKKSGSLAAIIEVDRLAHAQKLARESREGSLKMGRQFLQTVLPLQEDESLSQWAQLIRAKEAHGHYATTYGVFSYTRAYPDQMTMIAFLYSSVANLVHNAVRAIPLGQSTGVRVIHQLHEDCLYVAQQVVARSLNDLSNHAIGIELASMEHEHLHSRLFIS | not soluble
MRNVLKAETLERKFPLLSVENGCIVSKDADLTVAFEVELPELFTMTAAEYEAVHSSWVKAVKVLPDFSVVCKQDWFTKETYRPDFRDGEQSFLSKSYERHFNERPYLNHKCYLYLTKTTRERSRQRSDFNSLCCGSLLPKEMVDKDTAVRFLEAVEQFERIMNDSGHVSLRRLEADEITGTEGRPGLVEKYFSLSLEDETAVLQDICLNPGGMRVGDKRLCVHTLSDTEDLPVRVSTDMRYGRMSTDRSDCRLSFAAPVGLLLPCNHIYSQYVFIDDAQEILRTMEKTSRNMLSLSKYSRSNAVNREWTEMYLDEAHTKGVLPVRCHCNVMAWAEDREELRRVKNDTGSQLAMMECTPRHNTVDAPVLYWAGIPGNAGDFPAEESFYTFLEQAVCLFTAETNYRSSSSPFGIRMADRRNGIPLHVDISDLPMKRGIITNRNKFVLGPSGSGKSFFTNHLVRQYYEQGTHILLVDTGNSYQGLCRMIHDRTHGEDGIYITYEEDNPIAFNPFYTDSGQFDVEKRESIKTLILTLWKREDEAPKRSEEVALSGAVNAYIRRITDDRASRPDFNGFYEFVRDDYRRMIEQKKVREKDFDIDGFLNVLEPFYRGGDYDFLLNSDKELDLTNKRFIVFELDNISSNKVLLPVVTLIIMETFISKMRKLRGIRKMILIEECWKALMSANMSEYIKYLFKTVRKYFGEAVVVTQEVDDIISSDIVKEAIINNSDCKILLDQRKYMNKFEHIQKLLGLTEKERGQILSINRANRPGPFYREVWIGLGGTHSAVYATEVSAEEYAVRP | not soluble
MLKIGVITMALLSFLNAGWLGNLFDNTPTPYYTMPIDLSKTGNVAETDIRIDKEYRTGIALNYDFRRQKNKMTRNEYNNIKVFFGNSYTSGTAIPVKLKIEKIMDKNETTILNDIIIVDNNGGHELHSSLIKEIALSQGKYRIKVETTEDFSELSDLSVLVEIYYIRAPK | not soluble
MKIGIIGAGFVARAIAKLALQNGHQVMLSNSRDPQSLFSLRPMIGCDIGTATQAALFGDIIVIAVPFTAIDKLPEQALQGKSVIDAVNYYTERDGKVAALDTRSTTTSELLAGYLPGAKITKAFNAITMTQLERDGLPAGSAHRRALPLAGDHEQEKTIVAELYDAFGFDVVDAGKLSEGWRFERNMPSYCVRMTKAELTTALALSSRLEHHHHHH | soluble
SKIKDAKKPSFPWFGMDIGGTLVKLSYFEPIDITAEEEQEEVESLKSIRKYLTSNVAYGSTGIRDVHLELKDLTLFGRRGNLHFIRFPTQDLPTFIQMGRDKNFSTLQTVLCATGGGAYKFEKDFRTIGNLHLHKLDELDCLVKGLLYIDSVSFNGQAECYYFANASEPERCQKMPFNLDDPYPLLVVNIGSGVSILAVHSKDNYKRVTGTSLGGGTFLGLCSLLTGCESFEEALEMASKGDSTQADKLVRDIYGGDYERFGLPGWAVASSFGNMIYKEKRESVSKEDLARATLVTITNNIGSVARMCAVNEKINRVVFVGNFLRVNTLSMKLLAYALDYWSKGQLKALFLEHEGYFGAVGALLGLPNFS | soluble
MSLVNSLTHYEILRIPSDATQDEIKKAYRNRLLNTHPDKLSKSIHDTVSNVTINKIQDAYKILSNIKTRREYDRLILENYKRQGFHNCGDGLDEFSLDDFSFDEDKLEFMMNCPRCQFVGGFHFSESLLDECIDNVDAMERSHSGYQLLTQCSACSLWLKVNFDIEEEQEGQ | not soluble
